Laboratory results taken from US20080261267A1, “Cellulases from Rumen” (priority 2004, published 2008).

B1: pBKRR.14: rumen endoglucanase, sequences FIG. 16/24; also capable of hydrolyzing xylan (protein)
chain: MINVLQHHPEVELSVDKTSVSFNRSGGEETFTVTSSTQPHVSADVSWVVVETGKIDKDHHTEVRVLAGANRKEASAGTLTVSCSDKKVSVSVKQEAFVAPSVASTTAVTPQMVFDAMGPGWNMGNHMDAISNGVSGETVWGNPKCTQATMDGVKAAGYKAVRICTTWEGHIGAAPAYALEQKWLDRVAEIVGYAEKAGLVAIVNTHHDESYWQDISKCYNNAANHEKVKDEVFSVWTQIAEKFKDKGEWLVFESFNEIQDGGWGWSDAFRKNPDAQYKVLNEWNQTFVDAVRSTGGQNATRWLGIPGYACNPGFTIAGLVLPKDYTTANRLMVAVHDYDPYDYTLKDPLIRQWGHTADADKRPSGDNEKAVVDVFNNLKAAYLDKGIPVYLGEMGCSRHTAADFPYQKYYMEYFCKAAADRLLPMYLWDNGAKGVGSERHAYIDHGTGQFVDEDARTLVGLMVKAVTTKDASYTLESVYNSAP
modifications: Description of sequence sequence derived from genomic DNA library from rumen ecosystem, particularly amino acid sequence of clones pBKRR 14 and 20-1; RR14=RR20-1;(see Figure 24)
notes: also capable of hydrolyzing xylan
B2: pBKRR.22: rumen endo-beta-1,4-glucanase, sequences FIG. 11/19 (protein)
chain: MLLASFSLFSCGGSDGDDSTPTPSVSLQLVSQSIAEGAQVDAASTTVLTLNYNNPVRVTGNGVTLNGIAVKAKVSGNTSVEIPLTLVEGTVYTLKVAWGAIVAAADGKVVAPEFTLNFTTKGNQQPPIDENSPIAKKMGWGWNLGNHFDTSSGADGVRPQWGYWDNAKPTQVLYNNLRNAGTSTVRIGVTWGNYQNTSNWDIDANYIAEVRQNVEWAEAAGLNVILNMHHDEYWLDIKGAANNSSTNTNIKNRIEKTWKQIAEAFKDKGEFLIFESFNEIQDGGWGWGANRTDGGKQYKTLNEWNQLVVNTIRATGGNNATRWIGIPSYAANPSLALETGFVLPTDAANRLMVSVHFYDPSNFTLSPYVSDDSSEYKSGGYSEWGHTAAKGKADTGSNEDHVVAIFKKLHDKFVAKNIPVYIGEYGCVMHKNTRSNYFRNYYLEYVCRAAHEYGMPLCIWDNNQTGGGNEHHGYFNHTDGQYLNAMESLVKTMIKAATSDDASYTLESVYNKAPK
modifications: Description of sequence sequence derived from genomic DNA library from rumen ecosystem, particularly amino acid sequence of clones pBKRR 22, 6, 8 and 23;(see Figure 19)

Experiments:
[1] = Detergent resistance (effect of surfactants on activity); assay type: biochemical
Procedure: The detergent resistance or in other words the effect of surfactants on the activity of the polypeptide of the invention was measured. […] Also, the effect of several commonly used inhibitors on the activity of the polypeptide of the invention was investigated. Sulfhydryl inhibitors such as N-ethylmaleimide, iodoacetate and p-chloromercuribenzoate were all inhibitory. The chelating agents EDTA (ethylenediaminetetraacetic acid) and EGTA (ethyleneglycoltetraacetic acid) a more efficient chelator of Ca^2+ (inhibition >30%) and O-phenanthroline (inhibition >71%) had essentially no effect on the activity of the polypeptides or were slightly stimulatory. In summary, the polypeptides of the invention are well suited to be used for the treatment of cellulosic textiles or fabrics, especially as an ingredient in a detergent composition, because of their high activity at high pH and high stability against metal ions or various components of laundry products such as surfactants, chelating agents or proteinases. In general, they are also suited to be used in compositions containing several commonly used inhibitors.
FIG. 3 represents Table 3 giving an overview over the biochemical properties of the cellulases according to the invention. Reaction was performed at the optimum pH and temperature for each done using CMC as substrate. […] The values for clones pBKRR.1, 9, 11, 13, 14, 16 and 22 are depicted. For each clone the following data are given: • maximum pH at which the remaining activity after 24 h incubation at the indicate pH is >90% (column “Stable at pH”). […] Activity was measured after 2 h incubation and compared with a control reaction in buffer lacking dimethylsulfoxide, • detergent resistance given by the remaining activity in the corresponding buffer (optimum pH) containing the indicate detergent at a concentration for 0 to 3%. […] The effect of mono- (Na^+, K^+, NH4^+, and divalent cations (Ca^2+, Mn^2+, Mg^2+, Sr^2+, Fe^2+, Cu^2+, Ni^2+, Co^2+, Zn^2+) was first examined by treating the enzyme with chelating agents (EDTA and EGTA) to remove any endogenous divalent cations, followed by adding cations to the reaction mixture.
To study the effect of cations, inhibitors and surfactants on endoglucanase activity, the conditions were as follows: All cations tested were added as chloride salts and tested at a concentration of 10 mM. […] The effects of detergents on the endoglucanase activity was analysed by adding of 1-3% (wt/vol) detergent to the enzyme solution. In all cases, the enzyme activity was assayed in triplicate using the standard cellulose assay described above and the residual activity was expressed as percent of the control value (without addition of chemicals).

[2] = TLC analysis of hydrolysis products; assay type: biochemical; settings: pH 5.6, 50° C.
Text: FIG. 7 depicts the result of thin layer chromatography TLC analysis of products of CMC hydrolyzed by endoglucanases derived from a rumial genomic DNA library. The methods used for cellulase and substrate preparation, hydrolysis, TLC, and visualization are described in Example 5. The hydrolysis products glucose, cellobiose, cellotriose are shown an the right side. […] Different pattern was found when using short-chain beta-1,4-glucans.
The products formed by hydrolysis of cellulose-based substrates (cellobiose, cellotetraose, cellopentaose, cellulose and carboxymethyl cellulose) were analysed by thin-layer chromatography (TLC). Solutions containing 20 μg of E. coli cell lysate proteins and 0.2% (wt/vol) substrate in 50 mM acetate buffer (pH 5.6) were incubated at 50° C. until maximum conversion was achieved. The reactions were terminated by heating the preparation for 5 min at 95° C. and hydrolysis products were separated by TLC on silica gel plates (Merck, Darmstadt, Germany) by using a mixture chloroform, glacial acetic acid, and water (6:14:1) as the solvent. […] Sugars were visualized by heating 105° C. for 15 min the plates which were previously sprayed with a reagent containing amine (2 ml), diphenylamine (2 g), acetone (100 ml) and 85% H3PO4 (15 ml).

Molecule | activity in the presence of SDS (% more active and stable) ([1]; SDS 1-3%, 2 h incubation, versus control without detergent) [%] | activity in the presence of Triton X-100 (% more active and stable) ([1]; Triton X-100 1-3%, 2 h incubation, versus control without detergent, pH and temperature per clone) [%] | main hydrolysis products of CMC [2] | effect of SDS on activity ([1]; SDS 1 mM or higher) | effect of Triton X-100 on activity ([1]; Triton X-100 up to 1-3%)
B1 | 161 | 134 | cellobiose and cellotriose | – | –
B2 | – | – | cellobiose and cellotriose | inhibited by SDS at concentrations higher than 1 mM | resistant to Triton X-100 up to 1-3%
